Data published in article PMC4721966.

How the values were obtained:
[1] = target: PtAu1a_(bZIP-LOV), truncated PtAu1a variant encompassing the bZIP and LOV domain (Phaeodactylum tricornutum); assay: SEC-MALS; dark: pre-incubated at 20°C in the dark for 20 min; 100 µl of 150 µM protein on Superdex 200 10/300 GL in buffer C (20 mM HEPES pH 7.5, 100 mM NaCl, 10 mM MgCl2, 5% glycerol), RT, column kept in the dark; monomer-dimer
[2] = target: PtAu1a_(bZIP-LOV), truncated PtAu1a variant encompassing the bZIP and LOV domain (Phaeodactylum tricornutum); assay: SEC-MALS; light: pre-incubated at 20°C under continuous blue light (400 µW cm^-2 at 450 nm) for 20 min; 100 µl of 150 µM protein on Superdex 200 10/300 GL in buffer C, RT, column continuously illuminated; monomer-dimer
[3] = target: PtAu1aLOV, LOV domain of PtAu1a containing its N- and C-terminal α-helical extensions A´α and Jα (Phaeodactylum tricornutum); assay: MST; dark; Monolith NT.115; 20 nM DY-647-labelled PtAu1aLOV with a 1:2 dilution series of unlabelled PtAu1aLOV; 20 mM HEPES pH 7.5, 100 mM NaCl, 10% glycerol; dimer to monomers
[4] = target: PtAu1aLOV, LOV domain of PtAu1a containing its N- and C-terminal α-helical extensions A´α and Jα (Phaeodactylum tricornutum); assay: SEC-MALS; light: pre-incubated at 20°C under continuous blue light (400 µW cm^-2 at 450 nm) for 20 min; 100 µl of 150 µM protein on Superdex 200 10/300 GL in buffer C, RT, column continuously illuminated; monomer-dimer
[5] = target: Aureochrome 1a from Phaeodactylum tricornutum, full-length protein (PtAu1a_(full)) (Phaeodactylum tricornutum); assay: SEC-MALS; dark: pre-incubated at 20°C in the dark for 20 min; 100 µl of 150 µM protein on Superdex 200 10/300 GL in buffer C (20 mM HEPES pH 7.5, 100 mM NaCl, 10 mM MgCl2, 5% glycerol), RT, column kept in the dark; monomer-dimer
[6] = target: Aureochrome 1a from Phaeodactylum tricornutum, full-length protein (PtAu1a_(full)) (Phaeodactylum tricornutum); assay: SEC-MALS; light: pre-incubated at 20°C under continuous blue light (400 µW cm^-2 at 450 nm) for 20 min; 100 µl of 150 µM protein on Superdex 200 10/300 GL in buffer C, RT, column continuously illuminated; monomer-dimer
[7] = tested on: Aureochrome 1a full length (PtAu1afull) (Phaeodactylum tricornutum); assay: EMSA; conditions: 10 mM MgCl2, EMSA: 50 nM DNA in buffer C (20 mM HEPES pH 7.5, 100 mM NaCl, 10 mM MgCl2, 5% glycerol) plus 5% glycerol, 20 min at RT, dark or blue light (450 nm), 10% TGE …

PtAu1a_(bZIP-LOV), truncated PtAu1a variant encompassing the bZIP and LOV domain (domain or fragment)
stoichiometry N [1]: 2 | stoichiometry N [2]: 2

PtAu1aLOV, LOV domain of PtAu1a containing its N- and C-terminal α-helical extensions A´α and Jα (domain or fragment)
Kd [3]: 13.6 µM | stoichiometry N [4]: 2

Aureochrome 1a from Phaeodactylum tricornutum, full-length protein (PtAu1a_(full)) (natural protein)
stoichiometry N [5]: 2 | stoichiometry N [6]: 2

TGTAGCGTCTGACGTGGTTCCCAC (double strand) [24-bp dsCYC2 promoter probe]
K half ([7]; continuous blue light, EC50, Hill coefficient 1.65): 90 nM | K half ([7]; dark, EC50, Hill coefficient 1.35): 860 nM
